In this experiment the target is trastuzumab. The experiment is described as follows: fluorescence polarisation. (In fluorescence polarisation assays a small probe gives low polarisation when free and higher when bound to something large.)

With “Fc-III labeled with fluorescein (Fc-III-FAM) (peptide)”, the Kd is 14 nM.
The substance Fc-III peptide (wild-type Fc-III) yielded an IC50 of 58 nM.
NH2-PEG20-Fc-III (peptide) had an IC50 of 91 nM.

As usually defined, the Kd is a measure of binding affinity in units of concentration. High values mean lower affinity, low ones higher affinity. For orientation: IC50 means the concentration at which inhibition is half-maximal. A high value points to lower potency.

These data come from paper PMC8985508.
